Target: the molecule itself
Assay: crystal structure

B1: Methanocaldococcus jannaschii O-phosphoseryl-tRNA kinase (enzyme, UniProt Q58933 1-248, looked up)
chain: MLIILTGLPGVGKSTFSKNLAKILSKNNIDVIVLGSDLIRESFPVWKEKYEEFIKKSTYRLIDSALKNYWVIVDDTNYYNSMRRDLINIAKKYNKNYAIIYLKASLDVLIRRNIERGEKIPNEVIKKMYEKFDEPGKKYKWDEPFLIIDTTKDIDFNEIAKKLIEKSKEIPKFYVLEENKNKNNNISDKIDKETRKIVSEYIKSKKLDKDKIKEVVELRKEFLKKIKKMEEVDADRVLKEFKDLLNSY
- stoichiometry N: 2

From article PMC3035459 (Nucleic Acids Research, 2010)
